Measured values taken from patent US20140314789.

Biological target: Flag-tagged calcineurin-defective (ΔCalna) CRTC2 (UniProt Q3U182)
Sequence (Q3U182 whole entry, looked up, stated change not applied): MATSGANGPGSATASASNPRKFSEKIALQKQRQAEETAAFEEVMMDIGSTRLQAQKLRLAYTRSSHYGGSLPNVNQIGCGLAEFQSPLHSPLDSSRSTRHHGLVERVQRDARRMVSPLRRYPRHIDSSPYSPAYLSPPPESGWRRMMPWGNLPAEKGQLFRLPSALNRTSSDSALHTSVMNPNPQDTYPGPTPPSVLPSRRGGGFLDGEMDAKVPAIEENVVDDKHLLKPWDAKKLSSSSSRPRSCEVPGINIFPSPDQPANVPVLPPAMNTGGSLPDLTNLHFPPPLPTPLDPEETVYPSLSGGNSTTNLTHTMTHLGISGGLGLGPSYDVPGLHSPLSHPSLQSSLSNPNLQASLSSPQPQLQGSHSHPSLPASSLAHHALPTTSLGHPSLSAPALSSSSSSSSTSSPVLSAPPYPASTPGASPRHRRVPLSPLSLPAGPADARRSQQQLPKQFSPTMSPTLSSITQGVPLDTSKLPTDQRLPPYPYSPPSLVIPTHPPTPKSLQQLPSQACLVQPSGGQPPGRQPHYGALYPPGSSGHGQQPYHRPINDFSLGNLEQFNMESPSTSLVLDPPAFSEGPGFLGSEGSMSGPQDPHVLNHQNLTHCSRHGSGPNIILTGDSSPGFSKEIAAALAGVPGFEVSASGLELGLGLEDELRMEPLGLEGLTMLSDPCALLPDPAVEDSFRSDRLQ

Substance: HA-tagged calcineurin A (Calna)
- glucagon-dependent dephosphorylation of CRTC2, nuclear translocation, CRE-luc activation: mutation of both motifs disrupted the glucagon-dependent dephosphorylation of CRTC2 (FIG. 33B) and prevented its nuclear translocation (FIG. 38C), thereby down-regulating CRE-luc activation
